Kd data for four sequences are collected here from paper PMC4872150.

The target of the data set is nucleolin (UniProt P19338). Briefly: SPR. The settings on record: BIAcore 3000, nucleolin on CM5 chip, 10 mM HEPES, 150 mM NaCl, 3 mM EDTA, 0.005% surfactant P20, pH 7.4, 25 °C. On the technique in general: In SPR one partner is held on a chip, and binding of the other changes the refractive index at the surface.

pKd: −log10 of the molar value.

Sequence of UniProt P19338 (P19338 whole entry): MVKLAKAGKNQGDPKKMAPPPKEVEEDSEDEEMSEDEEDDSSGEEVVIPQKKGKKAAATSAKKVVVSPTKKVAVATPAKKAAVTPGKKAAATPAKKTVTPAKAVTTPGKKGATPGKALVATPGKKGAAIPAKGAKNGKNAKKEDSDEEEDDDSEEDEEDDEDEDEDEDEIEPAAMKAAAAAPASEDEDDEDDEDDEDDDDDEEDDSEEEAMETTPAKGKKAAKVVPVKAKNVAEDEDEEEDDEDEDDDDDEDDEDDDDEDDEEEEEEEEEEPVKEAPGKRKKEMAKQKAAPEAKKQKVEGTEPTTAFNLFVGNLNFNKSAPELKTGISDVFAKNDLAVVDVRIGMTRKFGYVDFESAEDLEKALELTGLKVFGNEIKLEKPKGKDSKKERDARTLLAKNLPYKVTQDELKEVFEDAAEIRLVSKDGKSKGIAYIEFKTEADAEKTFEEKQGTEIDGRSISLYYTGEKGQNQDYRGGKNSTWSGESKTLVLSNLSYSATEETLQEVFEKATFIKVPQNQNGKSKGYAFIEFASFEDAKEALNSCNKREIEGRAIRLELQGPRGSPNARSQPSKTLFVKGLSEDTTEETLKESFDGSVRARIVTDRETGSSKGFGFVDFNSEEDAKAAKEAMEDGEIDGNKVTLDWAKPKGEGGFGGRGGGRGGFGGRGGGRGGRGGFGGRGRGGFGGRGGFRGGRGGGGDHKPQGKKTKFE

In general, pKd refers to −log10 of the Kd, conventionally taken in molar units. Read a low pKd as a high Kd. Where the note is “N = 2'-deoxyinosine at positions 12 and 24 (replacing T)”, GGTGGTGGTGGNTGTGGTGGTGGNGG [FAN-1224dI] had a pKd of 7.49.
GGTGGTGGTGGTNGTGGTGGTGGNGG [FAN-1324dI] showed a pKd (N = 2'-deoxyinosine at positions 13 and 24 (replacing T)) of 7.51.
GGTGGTGGTGGTTGNGGTGGTGGNGG [FAN-1524dI] had a pKd (N = 2'-deoxyinosine at positions 15 and 24 (replacing T)) of 7.43.
Sequence GGTGGTGGTGGTTGTGGTGGTGGTGG [AS1411] showed a pKd of 6.77.
